According to patent US20220411483A1 (Chugai, published 2022):
Blank lines part the entries; values can stand above or below the binder they belong to.

Tests used:
[1] = target: T1, Human IgA (recombinant, H (WT)-IgA1 / L (WT)) (human); assay: SPR (Biacore T200), antibody on Protein A/G, hIgA analyte, 37C; pH 5.8, 3 µM Ca; 1:1 binding model
T1 construct: used as the antigen (analyte); also called hIgA
Description: (§1) The hIgA-binding activities (dissociation constant KD (M)) of the antibodies isolated in (1-3) were assessed using Biacore T200 (GE Healthcare). Measurements were performed using a 0.05% tween20, 20 mmol/L ACES, 150 mmol/L NaCl (pH 7.4 or pH 5.8) solution containing 3 μM or 1.2 mM CaCl₂, or a 0.05% tween20, 20 mmol/L ACES, 150 mmol/L NaCl (pH 8.0) solution containing 0.1 μM or 10 mM CaCl₂ as a running buffer.
(§2) An appropriate amount of recombinant Protein A/G (Thermo Scientific) was immobilized onto a Sensor chip CMS (GE Healthcare) by an amino coupling method, and the antibody was allowed to bind thereto. Then, an appropriate concentration of hIgA (described in (1-1)) was injected as an analyte and allowed to interact with the antibody on the sensor chip. The measurement was carried out at 37° C. After measurement, 10 mmol/L glycine-HCl (pH 1.5) was injected to regenerate the sensor chip. From the measurement result, the dissociation constant KD (M) was calculated by curve fitting analysis and equilibrium analysis using Biacore T200 Evaluation Software (GE Healthcare).

[2] = target: T1, Human IgA (recombinant, H (WT)-IgA1 / L …); assay: SPR (Biacore T200), antibody on Protein A/G, hIgA analyte, 37C; pH 7.4, 3 µM Ca; 1:1 binding model
Description: as §1, §2

[3] = target: T1, Human IgA (recombinant, H (WT)-IgA1 / L …); assay: SPR (Biacore T200), antibody on Protein A/G, hIgA analyte, 37C; pH 8.0, 10 mM Ca; 1:1 binding model
Description: as §1, §2

[4] = target: T1, Human IgA (recombinant, H (WT)-IgA1 / L …); assay: SPR (Biacore T200), antibody on Protein A/G, hIgA analyte, 37C; pH 5.8, 1.2 mM Ca; 1:1 binding model
Description: as §1, §2

[5] = target: T1, Human IgA (recombinant, H (WT)-IgA1 / L …); assay: SPR (Biacore T200), antibody on Protein A/G, hIgA analyte, 37C; pH 7.4, 1.2 mM Ca; 1:1 binding model
Description: as §1, §2

[6] = target: T1, Human IgA (recombinant, H (WT)-IgA1 / L …); assay: SPR (Biacore T200), antibody on Protein A/G, hIgA analyte, 37C; pH 8.0, 0.1 µM Ca; 1:1 binding model
Description: as §1, §2

[7] = target: T1, Human IgA (recombinant, H (WT)-IgA1 / L …); assay: SPR (Biacore T200), antibody on Protein A/G, hIgA analyte, 37C; pH 5.8, 3 µM Ca; Steady State Affinity
Description: as §1, §2

[8] = target: T1, Human IgA (recombinant, H (WT)-IgA1 / L …); assay: SPR (Biacore T200), antibody on Protein A/G, hIgA analyte, 37C; pH 7.4, 3 µM Ca; Steady State Affinity
Description: as §1, §2

[9] = target: T1, Human IgA (recombinant, H (WT)-IgA1 / L …); assay: SPR (Biacore T200), antibody on Protein A/G, hIgA analyte, 37C; pH 5.8, 1.2 mM Ca; Steady State Affinity
Description: as §1, §2

[10] = target: T1, Human IgA (recombinant, H (WT)-IgA1 / L …); assay: SPR (Biacore T200), antibody on Protein A/G, hIgA analyte, 37C; pH 7.4, 1.2 mM Ca; 1:1 binding model; pH 7.4, 1.2 mM Ca; 37 C; 1:1 binding model
Description: as §1, §2

human IgA (hIgA) = target: T2, human IgA (hIgA) (human); assay: SPR (Reference Example 3)
T2 construct: recombinant antigen
T2 sequence (VH, as listed by the source): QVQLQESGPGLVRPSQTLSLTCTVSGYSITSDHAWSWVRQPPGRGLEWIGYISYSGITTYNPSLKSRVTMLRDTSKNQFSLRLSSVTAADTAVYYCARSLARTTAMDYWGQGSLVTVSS
Description: as §1, §2

[11] = target: T3, FcγRIa extracellular domain with C-terminal His tag (human, UniProt P12314 16-292); assay: SPR (Biacore), FcgR as analyte
T3 construct: also called FcgRIa
T3 sequence (P12314 16-292): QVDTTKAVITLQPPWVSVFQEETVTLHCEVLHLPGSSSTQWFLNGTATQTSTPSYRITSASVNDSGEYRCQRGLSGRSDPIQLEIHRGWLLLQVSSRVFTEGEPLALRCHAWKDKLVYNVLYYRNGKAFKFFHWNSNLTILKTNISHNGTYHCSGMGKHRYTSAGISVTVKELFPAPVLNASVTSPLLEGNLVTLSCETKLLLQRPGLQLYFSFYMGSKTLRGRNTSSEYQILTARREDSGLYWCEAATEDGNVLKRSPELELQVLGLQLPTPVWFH

[12] = target: T4, FcγRIIb extracellular domain with C-terminal His tag (human, UniProt P31994 43-217); assay: SPR (Biacore), FcgR as analyte
T4 construct: extracellular domain; also called FcgRIIb
T4 sequence (looked up): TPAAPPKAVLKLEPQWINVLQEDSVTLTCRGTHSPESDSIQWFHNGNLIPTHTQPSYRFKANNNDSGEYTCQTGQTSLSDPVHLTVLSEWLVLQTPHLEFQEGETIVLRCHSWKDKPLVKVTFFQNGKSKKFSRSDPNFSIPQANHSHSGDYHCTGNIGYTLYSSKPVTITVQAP

[13] = target: T4, FcγRIIb extracellular domain with …; assay: SPR (Biacore); KD of IL6R-B3/IL6R-L / KD of variant
human IgE [14] = target: T5, human IgE (human); assay: SPR Biacore T200, 37 C; pH dependency
T5 construct: recombinant antigen; its variable region is from an anti-human glypican 3 antibody; also called hIgE
T5 sequence (heavy, as listed by the source, chain 1 of 2, other chains not shown): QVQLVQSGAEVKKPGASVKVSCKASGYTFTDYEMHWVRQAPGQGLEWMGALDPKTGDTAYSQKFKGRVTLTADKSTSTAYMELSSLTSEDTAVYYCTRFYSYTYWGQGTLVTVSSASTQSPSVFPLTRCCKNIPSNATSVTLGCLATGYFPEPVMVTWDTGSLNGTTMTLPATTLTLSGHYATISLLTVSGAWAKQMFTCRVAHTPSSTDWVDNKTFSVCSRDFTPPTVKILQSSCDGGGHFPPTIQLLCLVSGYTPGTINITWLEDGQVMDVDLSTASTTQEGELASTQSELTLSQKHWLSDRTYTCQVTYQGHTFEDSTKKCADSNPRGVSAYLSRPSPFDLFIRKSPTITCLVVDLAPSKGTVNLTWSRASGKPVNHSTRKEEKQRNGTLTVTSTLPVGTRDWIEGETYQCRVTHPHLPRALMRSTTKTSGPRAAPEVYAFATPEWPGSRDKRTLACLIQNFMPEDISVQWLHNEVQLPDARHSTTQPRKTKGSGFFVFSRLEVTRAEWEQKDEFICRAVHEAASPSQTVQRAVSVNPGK
Description: (§3) 1.2 mmol/1 CaCl₂/0.05% tween20, 20 mmol/l ACES, 150 mmol/l NaCl, pH 7.4 [0568] 1.2 mmol/1 CaCl₂/0.05% tween20, 20 mmol/l ACES, 150 mmol/l NaCl, pH 5.8 [0569] 3 μmol/l CaCl₂/0.05% tween20, 20 mmol/l ACES, 150 mmol/l NaCl, pH 5.8
(§4) A peptide produced by adding biotin to Lys present at the C terminus of a chemically synthesized human glypican 3 protein-derived sequence (SEQ ID NO: 12) (hereinafter written as “biotinylated GPC3 peptide”) added at an appropriate amount was immobilized onto Sensor chip SA (GE Healthcare) utilizing the affinity between streptavidin and biotin. An appropriate concentration of human IgE was injected and trapped with the biotinylated GPC3 peptide to immobilize human IgE onto the chip. […] Then, 10 mmol/L glycine-HCl (pH 1.5) was injected to regenerate the sensor chip. All of the assay for the interaction was performed at 37° C. Using Biacore T200 Evaluation Software (GE Healthcare), the assay results were analyzed by curve fitting to determine the binding rate constant ka (1/Ms) and dissociation rate constant kd (1/s). Dissociation constant KD (M) was calculated from the above constants.

human IgE [15] = target: T5, human IgE; assay: SPR Biacore T200, 37 C; pH/Ca dependency
Description: as §3, §4

human IgE [16] = target: T5, human IgE; assay: SPR Biacore T200, 37 C, hIgE on chip, antibody analyte; pH 5.8, 3 µM Ca
Description: as §3, §4

human IgE [17] = target: T5, human IgE; assay: SPR Biacore T200, 37 C, hIgE on chip, antibody analyte; pH 5.8, 1.2 mM Ca
Description: as §3, §4

human IgE [18] = target: T5, human IgE; assay: SPR Biacore T200, 37 C, hIgE on chip, antibody analyte; pH 7.4, 1.2 mM Ca
Description: as §3, §4

mouse FcγRI = target: T6, mouse FcγRI (mouse, UniProt P26151 25-297, limits assumed); assay: SPR
T6 construct: also called mFcγRI
T6 sequence (looked up): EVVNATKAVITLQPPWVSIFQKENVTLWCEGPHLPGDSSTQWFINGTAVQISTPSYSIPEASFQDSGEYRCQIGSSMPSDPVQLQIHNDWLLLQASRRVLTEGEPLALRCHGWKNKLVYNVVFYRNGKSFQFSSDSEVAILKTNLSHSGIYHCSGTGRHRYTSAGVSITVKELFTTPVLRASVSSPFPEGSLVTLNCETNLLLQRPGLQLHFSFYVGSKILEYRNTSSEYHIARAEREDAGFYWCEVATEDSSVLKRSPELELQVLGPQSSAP

mouse FcγRIV = target: T7, mouse FcγRIV (mouse, UniProt A0A0B4J1G0 21-203); assay: SPR
T7 construct: also called mFcγRIV
T7 sequence: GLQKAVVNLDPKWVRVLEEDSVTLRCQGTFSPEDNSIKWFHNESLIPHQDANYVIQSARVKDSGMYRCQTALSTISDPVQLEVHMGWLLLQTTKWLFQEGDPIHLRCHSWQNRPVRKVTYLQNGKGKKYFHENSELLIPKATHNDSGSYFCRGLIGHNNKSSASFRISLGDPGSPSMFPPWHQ

T1 sequence (VH, as listed by the source): as the sequence (VH, as listed by the source) above

B1: GA1-IgG1 (antibody, V domains shown)
VH: EVQLVQSGAEVKKPGSSVKVSCKASGGTFSSYAISWVRQAPGQGLEWMGGIIPIFGTANYAQKFQGRVTITADESTSTAYMELSSLRSEDTAVYYCARVAPGNWGSPYFDYWGQGTLVTVSS
VL: DIQMTQSPSSLSASVGDRVTITCRASQSIEDDLAWYQQKPGKAPKLLIYEASSLQSGVPSRFSGSGSGTDFTLTISSLQPEDFATYYCQQRDSSPLTFGQGTKVEIKR
Kd [1]: 150 nM
Kd [2]: 190 nM
Kd [3]: 100 nM
Kd [4]: 140 nM
Kd [5]: 150 nM
Kd [6]: 220 nM

B2: GA2-IgG1 (antibody, V domains shown)
VH: QVQLVQSGAEVKKPGSSVKVSCKASGGTFSSYAISWVRQAPGQGLEWMGGIIPIFGTANYAQKFQGRVTITADESTSTAYMELSSLRSEDTAVYYCARPRWETAISSDAFDIWGQGTMVTVSS
VL: DIQMTQSPSSLSASVGDRVTITCRASQSISDDLNWYQQKPGKAPKLLIYEASNLQSGVPSRFSGSGSGTDFTLTISSLQPEDFATYYCQQHSSSPLTFGQGTKVEIKR
Kd [5]: 39 nM
Kd [7]: 5 µM
Kd [8]: 6.7 µM
Kd [9]: 4 µM
kon [10]: 400000 M⁻¹ s⁻¹

B3: GA2-IgG1 (antibody, V domains shown)
VH: QVQLVQSGAEVKKPGSSVKVSCKASGGTFSSYAISWVRQAPGQGLEWMGGIIPIFGTANYAQKFQGRVTITADESTSTAYMELSSLRSEDTAVYYCARPRWETAISSDAFDIWGQGTMVTVSS
VL: DIQMTQSPSSLSASVGDRVTITCRASQSISDDLNWYQQKPGKAPKLLIYEASNLQSGVPSRFSGSGSGTDFTLTISSLQPEDFATYYCQQHSSSPLTFGQGTKVEIKR
notes: also called GA-IgG1
Ca-dependent hIgA-binding activity (fold) (human IgA (hIgA)): ≥ 100 times

B4: IL6R-BP198/IL6R-L (antibody, human IgG1, kappa, name in EU numbering)
heavy: QVQLQESGPGLVKPSETLSLTCAVSGHSISHDHAWSWVRQPPGEGLEWIGFISYSGITNYNPSLQGRVTISRDNSKNTLYLQMNSLRAEDTAVYYCARSLARTTAMDYWGEGTLVTVSSASTKGPSVFPLAPSSKSTSGGTAALGCLVKDYFPEPVTVSWNSGALTSGVHTFPAVLQSSGLYSLSSVVTVPSSSLGTQTYICNVNHKPSNTKVDKKVEPKSCDKTHTCPPCPAPDYLGGDSVFLFPPKPKDTLMISRTPEVTCVVVDVSDEDGEVKFNWYVDGVEVHNAKTKPREEQYNSTYRVVSVLTVLHQDWLNGKEYKCKVSNAALPKPIEKTISKAKGQPREPQVYTLPPSRDELTKNQVSLTCLVKGFYPSDIAVEWESNGQPENNYKTTPPVLDSDGSFFLYSKLTVDKSRWQQGNVFSCSVMHEALHNHYTQESLSLSP
light: not shown
notes: IgG1; alterations on IL6R-B3, EU numbering
Kd [11]: 11 nM
Kd [12]: 200 nM
Relative FcgRIIb-binding Activity [13]: 15.7 fold vs IL6R-B3/IL6R-L

Next, values leading:

KD(pH 5.8, 1.2 mM Ca)/KD(pH 7.4, 1.2 mM Ca) (human IgE [14]): 842 ratio
KD(pH 5.8, 3 µM Ca)/KD(pH 7.4, 1.2 mM Ca) (human IgE [15]): 1640 ratio
Kd (human IgE [16]): 3.9 µM
koff (human IgE [16]): 0.24 s⁻¹
kon (human IgE [16]): 62000 M⁻¹ s⁻¹
Kd (human IgE [17]): 2000 nM
koff (human IgE [17]): 0.23 s⁻¹
kon (human IgE [17]): 120000 M⁻¹ s⁻¹
Kd (human IgE [18]): 2.4 nM
koff (human IgE [18]): 0.0036 s⁻¹
kon (human IgE [18]): 1.5e+06 M⁻¹ s⁻¹
B5: clone 278 (IgG1) (antibody, V domains shown)
VH: QSLEESGGRLVTPGTPLTLTCTASGFSLSSYHMSWVRQAPGKGLEWIGVINSAGNTYYASWAKGRFTVSKTSTTVDLNLTSLTTEDTATYFCARYVFSSGSHDIWGPGTLVTVSS
VL: AYDMTQTPASVEVAVGGTVTIKCQASQSIGSWLAWYQQKPGQPPKELIYGTSTLESGVPSRFIGSGSGTEFTLTISGVECADAATYYCQQGYSEDNIDNAFGGGTEVVVKR
notes: pH-dependent anti-human IgE antibody with human IgG1 constant region

binding result (mouse FcγRI): no binding
binding result (mouse FcγRIV): no binding
B6: VH3/L (WT)-mIgG1 (antibody)
heavy: QVQLQESGPGLVKPSETLSLTCAVSGHSISHDHAWSWVRQPPGEGLEWIGFISYSGITNYNPSLQGRVTISRDNSKNTLYLQMNSLRAEDTAVYYCARSLARTTAMDYWGEGTLVTVSSAKTTPPSVYPLAPGSAAQTNSMVTLGCLVKGYFPEPVTVTWNSGSLSSGVHTFPAVLQSDLYTLSSSVTVPSSTWPSETVTCNVAHPASSTKVDKKIVPRDCGCKPCICTVPEVSSVFIFPPKPKDVLTITLTPKVTCVVVDISKDDPEVQFSWFVDDVEVHTAQTQPREEQFNSTFRSVSELPIMHQDWLNGKEFKCRVNSAAFPAPIEKTISKTKGRPKAPQVYTIPPPKEQMAKDKVSLTCMITDFFPEDITVEWQWNGQPAENYKNTQPIMDTDGSYFVYSKLNVQKSNWEAGNTFTCSVLHEGLHNHHTEKSLSHSPGK
light: not shown
notes: mouse IgG1 Fc region
